Source: PMC9127447, “The Lipid-Binding Defective Dynamin 2 Mutant in Charcot-Marie-Tooth Disease Impairs Proper Actin Bundling and Actin Organization in Glomerular Podocytes” (Frontiers in Cell and Developmental Biology, 2022)

What was measured:
[1] = molecular target: Non-muscle actin (actin filaments) (UniProt P60709 1-375); assay: cell-based or functional assay
[2] = molecular target: the molecule itself; assay: cell-based or functional assay

Binder | release of free phosphate (GTPase activity) by dynamin 2 (1.5 uM) with actin filaments (1 uM), 100 mM KCl, relative to that without actin [1] | GTPase activity under low ionic strength buffer, relative to dynamin 2-WT [2]
His-tagged rat dynamin 2-WT (enzyme, UniProt P39052 1-870, looked up) MGNRGMEELIPLVNKLQDAFSSIGQSCHLDLPQIAVVGGQSAGKSSVLENFVGRDFLPRGSGIVTRRPLILQLIFSKTEYAEFLHCKSKKFTDFDEVRQEIEAETDRVTGTNKGISPVPINLRVYSPHVLNLTLIDLPGITKVPVGDQPPDIEYQIKDMILQFISRESSLILAVTPANMDLANSDALKLAKEVDPQGLRTIGVITKLDLMDEGTDARDVLENKLLPLRRGYIGVVNRSQKDIEGRKDIRAALAAERKFFLSHPAYRHMADRMGTPHLQKTLNQQLTNHIRESLPTLRSKLQSQLLSLEKEVEEYKNFRPDDPTRKTKALLQMVQQFGVDFEKRIEGSGDQVDTLELSGGARINRIFHERFPFELVKMEFDEKDLRREISYAIKNIHGVRTGLFTPDLAFEAIVKKQVVKLKEPCLKCVDLVIQELISTVRQCTSKLSSYPRLREETERIVTTYIREREGRTKDQILLLIDIEQSYINTNHEDFIGFANAQQRSTQLNKKRAIPNQGEILVIRRGWLTINNISLMKGGSKEYWFVLTAESLSWYKDEEEKEKKYMLPLDNLKIRDVEKGFMSNKHVFAIFNTEQRNVYKDLRQIELACDSQEDVDSWKASFLRAGVYPEKDQAENEDGAQENTFSMDPQLERQVETIRNLVDSYVAIINKSIRDLMPKTIMHLMINNTKAFIHHELLAYLYSSADQSSLMEESAEQAQRRDDMLRMYHALKEALNIIGDISTSTVSTPVPPPVDDTWLQNTSSHSPTPQRRPVSSVHPPGRPPAVRGPTPGPPLIPMPVGATSSFSAPPIPSRPGPQNVFANNDPFSAPPQIPSRPARIPPGIPPGVPSRRAPAAPSRPTIIRPAEPSLLD | 6 fold | 
His-tagged rat dynamin 2-K562E (enzyme, UniProt P39052 1-870, looked up) MGNRGMEELIPLVNKLQDAFSSIGQSCHLDLPQIAVVGGQSAGKSSVLENFVGRDFLPRGSGIVTRRPLILQLIFSKTEYAEFLHCKSKKFTDFDEVRQEIEAETDRVTGTNKGISPVPINLRVYSPHVLNLTLIDLPGITKVPVGDQPPDIEYQIKDMILQFISRESSLILAVTPANMDLANSDALKLAKEVDPQGLRTIGVITKLDLMDEGTDARDVLENKLLPLRRGYIGVVNRSQKDIEGRKDIRAALAAERKFFLSHPAYRHMADRMGTPHLQKTLNQQLTNHIRESLPTLRSKLQSQLLSLEKEVEEYKNFRPDDPTRKTKALLQMVQQFGVDFEKRIEGSGDQVDTLELSGGARINRIFHERFPFELVKMEFDEKDLRREISYAIKNIHGVRTGLFTPDLAFEAIVKKQVVKLKEPCLKCVDLVIQELISTVRQCTSKLSSYPRLREETERIVTTYIREREGRTKDQILLLIDIEQSYINTNHEDFIGFANAQQRSTQLNKKRAIPNQGEILVIRRGWLTINNISLMKGGSKEYWFVLTAESLSWYKDEEEKEKEYMLPLDNLKIRDVEKGFMSNKHVFAIFNTEQRNVYKDLRQIELACDSQEDVDSWKASFLRAGVYPEKDQAENEDGAQENTFSMDPQLERQVETIRNLVDSYVAIINKSIRDLMPKTIMHLMINNTKAFIHHELLAYLYSSADQSSLMEESAEQAQRRDDMLRMYHALKEALNIIGDISTSTVSTPVPPPVDDTWLQNTSSHSPTPQRRPVSSVHPPGRPPAVRGPTPGPPLIPMPVGATSSFSAPPIPSRPGPQNVFANNDPFSAPPQIPSRPARIPPGIPPGVPSRRAPAAPSRPTIIRPAEPSLLD | 4 fold | ~0.33 of dynamin 2-WT
